Assay results published in the supplement of paper PMC9876800.

Tested on: peptide library, one residue held at a place counted from the S/T acceptor
Assay: relative phosphorylation of the sub-library (ratio to the mean residue at this position); higher = residue favoured
Details: human
In short: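 Purified recombinant kinases were reacted in 384-well plates with biotinylated degenerate peptide sub-libraries, each having one residue fixed at one position around a central Ser/Thr. The reaction mix contained 50 μM peptide plus 50 μM ATP spiked with γ-32P-ATP and ran for 90 min under kinase-specific conditions. Relative sub-library phosphorylation, taken from densitometry of phosphorimaged streptavidin membrane spots, is a ratio to the mean residue at that position.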

Sequence of MAP3K6, construct: aa620-950 (O95382 620-950, looked up): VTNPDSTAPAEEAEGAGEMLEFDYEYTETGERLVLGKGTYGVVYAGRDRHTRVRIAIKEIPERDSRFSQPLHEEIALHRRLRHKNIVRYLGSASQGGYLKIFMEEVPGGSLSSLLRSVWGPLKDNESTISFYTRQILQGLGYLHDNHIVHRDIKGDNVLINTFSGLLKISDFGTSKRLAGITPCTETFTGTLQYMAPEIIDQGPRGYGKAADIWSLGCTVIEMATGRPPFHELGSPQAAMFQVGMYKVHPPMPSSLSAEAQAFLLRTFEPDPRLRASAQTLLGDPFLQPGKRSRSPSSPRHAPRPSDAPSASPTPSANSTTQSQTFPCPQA
Sequence of GAK, construct: aa24-359 (O14976 24-359, looked up): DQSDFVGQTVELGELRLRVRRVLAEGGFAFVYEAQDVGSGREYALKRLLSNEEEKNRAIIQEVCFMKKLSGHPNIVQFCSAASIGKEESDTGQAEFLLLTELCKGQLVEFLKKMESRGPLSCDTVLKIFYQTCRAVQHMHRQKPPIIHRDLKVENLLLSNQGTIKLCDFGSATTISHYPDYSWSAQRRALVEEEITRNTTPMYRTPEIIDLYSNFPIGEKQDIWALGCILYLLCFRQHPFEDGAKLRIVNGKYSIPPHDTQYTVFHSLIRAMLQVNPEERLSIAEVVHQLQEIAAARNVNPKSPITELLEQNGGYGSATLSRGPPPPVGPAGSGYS
Sequence of MYLK3, construct: aa490-end (Q32MK0 490-819, looked up): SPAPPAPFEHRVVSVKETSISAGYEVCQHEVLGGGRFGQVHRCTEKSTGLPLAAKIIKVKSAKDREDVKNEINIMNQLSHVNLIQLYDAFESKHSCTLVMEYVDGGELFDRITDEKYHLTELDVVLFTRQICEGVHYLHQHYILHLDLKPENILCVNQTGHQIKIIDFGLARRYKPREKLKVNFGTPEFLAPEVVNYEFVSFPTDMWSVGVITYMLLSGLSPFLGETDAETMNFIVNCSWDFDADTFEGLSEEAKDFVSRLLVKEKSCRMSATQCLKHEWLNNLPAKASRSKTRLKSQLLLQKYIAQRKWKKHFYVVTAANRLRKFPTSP
Sequence of CDK16, construct: aa107-end (Q00536 107-496, looked up): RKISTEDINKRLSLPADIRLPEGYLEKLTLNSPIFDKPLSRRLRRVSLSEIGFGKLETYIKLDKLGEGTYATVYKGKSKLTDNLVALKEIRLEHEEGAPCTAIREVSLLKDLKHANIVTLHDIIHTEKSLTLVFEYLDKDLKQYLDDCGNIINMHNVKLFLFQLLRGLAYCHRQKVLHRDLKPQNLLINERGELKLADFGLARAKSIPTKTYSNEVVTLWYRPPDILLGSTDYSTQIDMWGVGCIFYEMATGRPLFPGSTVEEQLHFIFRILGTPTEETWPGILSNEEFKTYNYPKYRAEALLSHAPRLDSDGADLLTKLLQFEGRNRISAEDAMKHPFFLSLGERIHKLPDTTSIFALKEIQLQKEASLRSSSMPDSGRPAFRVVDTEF

MYLK3, construct: aa490-end (from UniProt Q32MK0)
relative phosphorylation
Details	at +1	at +2	at +3	at +4	at -1	at -2	at -3	at -4	at -5
A fixed	0.997	0.992	0.828	1	0.944	0.927	0.967	1.04	0.985
D fixed	0.753	0.819	0.786	0.983	0.851	0.585	0.67	0.758	0.72
E fixed	0.833	0.958	0.758	1.01	0.799	0.585	0.667	0.836	0.722
F fixed	0.951	1.06	1.43	1.02	0.964	0.641	0.71	0.904	0.919
G fixed	0.937	0.89	0.861	1.04	0.913	0.788	0.879	1.01	0.982
H fixed	0.922	0.995	0.943	1.07	1.03	1.09	0.884	0.976	0.987
I fixed	1.1	1.19	0.997	1.03	0.971	0.656	0.748	0.936	1.09
K fixed	1.25	0.972	0.81	0.941	1.09	1.44	1.41	1.42	1.29
L fixed	0.938	1	1.2	1.04	1.24	0.653	0.711	0.918	0.983
M fixed	1.18	1.02	0.953	0.932	1.2	0.711	0.756	0.991	1.04
N fixed	0.961	0.863	0.839	0.93	1.07	0.737	0.717	0.867	0.813
P fixed	0.786	0.899	0.876	1.18	0.956	0.778	0.933	1.01	1.11
Q fixed	1.1	0.887	0.786	0.937	0.949	0.762	0.77	0.902	0.85
R fixed	1.43	1.07	0.821	1	1.17	4.7	3.93	1.62	1.68
V fixed	1.12	1.19	0.889	0.943	0.972	0.668	0.773	1.01	1.01
W fixed	0.839	0.997	2.22	1.05	0.862	0.63	0.735	0.858	0.813
Y fixed	0.908	1.19	1	0.902	1.02	0.647	0.729	0.938	1
pThr fixed	1.12	1.06	0.774	1.08	0.769	0.637	0.724	0.809	0.728
pTyr fixed	0.83	1.06	0.883	1.02	0.882	0.644	0.994	0.844	0.798

MAP3K6, construct: aa620-950 (from UniProt O95382)
relative phosphorylation
Details	at +1	at +2	at +3	at +4	at -1	at -2	at -3	at -4	at -5
A fixed	1.34	0.898	1.23	0.902	1.33	1.5	1.24	1.03	1.15
D fixed	0.184	0.304	0.38	0.371	0.366	0.366	0.474	0.589	0.603
E fixed	0.255	0.23	0.335	0.36	0.391	0.365	0.561	0.641	0.712
F fixed	0.74	0.907	1.12	1.04	0.584	0.622	0.872	0.93	0.875
G fixed	0.715	0.78	1.05	1.12	1.91	1.18	1.15	1.09	1.15
H fixed	1.4	1.41	1.02	1.26	1.12	1.16	1.35	1.32	1.24
I fixed	1.26	0.568	0.606	1.07	0.588	0.879	0.736	0.725	0.613
K fixed	0.426	1.54	1.26	1.82	1.1	0.972	1.03	1.3	1.32
L fixed	1.36	0.912	1.2	0.797	0.805	0.922	0.913	0.76	0.86
M fixed	1.73	1.01	0.995	0.908	1.13	0.758	0.859	1.31	0.869
N fixed	0.754	0.839	0.793	0.822	0.94	1.41	1.02	0.958	1.03
P fixed	0.354	0.498	1.1	0.931	0.896	1.16	0.774	0.824	1.08
Q fixed	0.844	0.83	0.946	0.931	0.891	1.25	1.08	1.02	1.14
R fixed	0.594	2.05	1.57	1.66	1.72	1.37	1.55	1.18	1.43
V fixed	1.62	0.726	0.984	0.853	0.917	1.35	0.984	1.02	0.996
W fixed	1.38	1.19	1.1	0.955	0.951	0.748	1.25	1.12	1.05
Y fixed	2.05	2.31	1.3	1.19	1.36	0.979	1.17	1.19	0.881
pThr fixed	0.602	0.585	0.681	0.261	0.574	0.9	0.725	0.845	0.914
pTyr fixed	0.421	0.294	0.614	0.356	0.673	0.548	0.787	0.736	0.917

GAK, construct: aa24-359 (from UniProt O14976)
relative phosphorylation
Details	at +1	at +2	at +3	at +4	at -1	at -2	at -3	at -4	at -5
A fixed	0.783	1.19	0.848	0.882	0.845	0.985	0.819	0.986	0.954
D fixed	0.647	0.954	0.997	0.884	0.75	0.753	0.898	1.14	1.08
E fixed	0.658	0.86	1.05	0.891	0.653	0.778	0.912	1.49	1.03
F fixed	0.643	0.918	0.862	1.02	0.904	0.801	0.709	0.856	0.879
G fixed	5.69	1.37	1.28	0.908	0.974	1.08	0.888	0.947	0.831
H fixed	0.829	1.13	1.19	0.96	1.13	1.13	1.11	1.11	1.1
I fixed	0.588	0.741	0.822	0.849	0.824	0.879	0.935	0.852	1.06
K fixed	0.766	1.08	1.21	1.21	2.28	1.1	1.43	1.12	1.09
L fixed	0.615	0.801	0.914	0.987	0.808	0.994	1.01	0.83	0.802
M fixed	0.649	0.792	0.825	0.896	0.813	1.06	1.07	0.875	0.853
N fixed	0.841	1.28	1.22	0.913	0.973	1.65	1.17	0.941	0.978
P fixed	0.729	0.736	0.801	0.834	1.23	0.687	0.751	0.69	0.696
Q fixed	0.696	1.1	1.05	1	0.965	1.22	1.16	1.04	0.853
R fixed	0.833	1.26	1.2	1.34	1.3	1.28	1.43	1.14	1.15
V fixed	0.59	0.902	0.974	0.882	0.914	0.86	0.901	0.959	1
W fixed	0.769	1.03	0.82	1.59	0.803	0.848	0.849	1.03	1.05
Y fixed	0.672	0.831	0.931	0.947	0.838	0.9	0.959	0.998	1.6
pThr fixed	0.904	1.95	1.38	1.44	1.22	1.63	1.69	1.55	1.23
pTyr fixed	0.674	0.963	0.94	0.772	0.884	1.09	1.27	1.23	1.27

CDK16, construct: aa107-end (from UniProt Q00536)
relative phosphorylation
Details	at +1	at +2	at +3	at +4	at -1	at -2	at -3	at -4	at -5
A fixed	0.223	0.675	0.758	0.72	1.18	1.28	1.24	0.912	1.03
D fixed	0.152	0.587	0.335	0.457	0.539	0.439	0.692	0.863	0.745
E fixed	0.15	0.385	0.316	0.305	0.491	0.464	0.839	0.817	0.699
F fixed	0.155	0.368	1.03	0.593	0.499	0.512	0.478	0.455	0.542
G fixed	0.947	0.572	0.702	1.38	2.12	0.887	2.02	0.951	0.854
H fixed	0.218	1.25	0.82	1.16	0.92	0.797	1.27	1.08	1.68
I fixed	0.147	0.455	0.842	0.588	0.26	0.834	0.433	0.852	0.625
K fixed	0.253	3.26	0.872	2.54	1.37	0.617	0.915	2.31	2.51
L fixed	0.177	1.05	2.59	0.679	0.582	1.18	0.93	1.15	1.16
M fixed	0.168	0.663	1.97	0.757	0.722	1.12	0.666	0.755	0.722
N fixed	0.225	1.17	0.964	1.09	1.16	1.08	1.19	1.78	1.42
P fixed	13.1	0.696	1.45	0.842	1.77	3.72	1.93	1.11	0.908
Q fixed	0.246	1.26	0.973	1.06	1.28	0.988	1.06	1.01	0.95
R fixed	0.23	2.63	0.996	2.89	1.67	0.715	0.973	1.02	1.08
V fixed	0.177	0.676	0.937	0.66	0.399	0.941	0.643	0.598	0.657
W fixed	0.221	0.702	0.877	0.687	0.991	0.83	0.85	0.675	0.902
Y fixed	0.17	0.608	0.564	0.587	1.04	0.588	0.871	0.653	0.509
pThr fixed	0.435	0.648	0.998	0.332	0.397	0.764	0.87	0.767	0.657
pTyr fixed	0.801	0.513	1.11	0.42	0.49	0.698	0.925	0.584	0.723
